Data taken from patent US20240034815A1 (Xencor, published 2024).
Substitutions are numbered along the chain they refer to. Names may count otherwise. Blank lines part the entries; values can stand above or below the binder they belong to.

Experiments:
His-tagged human GPC3 [1] = target: T1, His-tagged human GPC3 (human, UniProt P51654 25-559, limits assumed); test: binding assay not named for this figure; human GPC3 per legend paragraph 61
T1 construct: Captured on HIS1K sensors in the Octet assay; also called human GPC3 antigen; Glypican 3; not shown: His tag
T1 sequence (P51654 25-559 limits assumed): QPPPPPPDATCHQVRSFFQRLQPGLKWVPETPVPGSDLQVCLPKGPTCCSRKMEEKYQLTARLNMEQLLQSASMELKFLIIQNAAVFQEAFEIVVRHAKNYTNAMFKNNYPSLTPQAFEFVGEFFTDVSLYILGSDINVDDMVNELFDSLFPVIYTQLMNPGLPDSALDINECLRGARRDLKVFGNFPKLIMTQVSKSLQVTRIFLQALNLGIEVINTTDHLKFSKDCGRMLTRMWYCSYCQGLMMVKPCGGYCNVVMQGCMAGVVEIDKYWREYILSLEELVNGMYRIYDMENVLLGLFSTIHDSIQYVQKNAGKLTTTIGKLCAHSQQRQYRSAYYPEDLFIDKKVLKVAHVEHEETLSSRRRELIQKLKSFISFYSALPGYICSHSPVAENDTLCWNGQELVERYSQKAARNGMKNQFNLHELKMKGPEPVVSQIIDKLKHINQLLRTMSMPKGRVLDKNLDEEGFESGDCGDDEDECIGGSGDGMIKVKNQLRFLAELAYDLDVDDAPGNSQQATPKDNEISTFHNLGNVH

His-tagged human GPC3 [2] = target: T1, His-tagged human GPC3; test: Octet (BLI); His-tagged GPC3 captured on HIS1K sensors, bsAb in solution
Method: (§1) After humanization, GPC3 binding arms were engineered with single point mutations in the variable light domain with the aim to create a ladder of GPC3 binding affinity, illustrative sequences for which are depicted in FIG. 13. 73 variable light domain variants were engineered and paired with GPC3-A H1.1 (see Example 3C for description of GPC3-A H1.1 variant). The GPC3-A variants were engineered in the 1+1 Fab-scFv-Fc bsAb format and binding for GPC3 antigen was measured using Octet, a BioLayer Interferometry (BLI)-based method. Experimental steps for Octet generally include the following: Immobilization (capture of ligand to a biosensor); Association (dipping of ligand-coated biosensors into wells containing the analyte); and Dissociation (returning of biosensors to well containing buffer). For ease of clinical development (e.g. by investigating the therapeutics in model animals), it is useful for the binding domains to be cross-reactive for cynomolgus antigen; therefore, binding to both human and cynomolgus GPC3 antigen were investigated. His-tagged human and cynomolgus GPC3 were captured on HIS1K sensors then dipped into multiple concentrations of the bispecific antibodies. The resulting dissociation constant (KD) are depicted in FIG. 23.

His-tagged human GPC3 [3] = target: T1, His-tagged human GPC3; test: Octet (BLI), His-tagged GPC3 captured on HIS1K sensors, bsAb as analyte
Method: as §1

[4] = target: T2, His-tagged cynomolgus GPC3 (cynomolgus, UniProt A0A2K5VK50 24-558); test: as above
T2 construct: Captured on HIS1K sensors in the Octet assay; also called cynomolgus GPC3 antigen; cyno GPC3; not shown: His tag
Method: as §1

His-tagged human GPC3 [5] = target: T1, His-tagged human GPC3; test: affinity label of the GPC3 binding domain; Octet (BLI) of Example 2
Method: as §1

His-tagged human GPC3 [6] = target: T1, His-tagged human GPC3; test: binding assay not named for this figure; Octet (BLI) is the method of Example 2B
Method: as §1

[7] = target: T2, His-tagged cynomolgus GPC3; test: as above
Method: as §1

Kd (His-tagged human GPC3 [1]): 3.92 nM
B1: GPC3-A variable heavy variant H1.1 (D52E) with L1 (antibody, V domains shown)
VH: QVQLVQSGAEVKKPGASVKVSCKASGYTFTDYEMHWVRQAPGQGLEWMGALEPKTGDTAYSQKFQGRVTMTADKSISTAYMELSRLRSDDTAVYYCTRFYSYTYWGQGTLVTVSS
VL: DVVMTQSPLSLPVTLGQPASISCRSSQSLVHSNGNTYLHWYQQRPGQSPRLLIYKVSNRFSGVPDRFSGSGSGTDFTLKISRVEAEDVGVYFCSQNTHVPPTFGSGTKLEIK
notes: pairing with L1 follows from the library being made on humanized GPC3-A and from pair c) of claim 53; also called [GPC3]H1.1_L1

Kd (His-tagged human GPC3 [1]): 2.85 nM
B2: GPC3-A variable light variant L1.6 (G29T) with H1 (antibody, V domains shown)
VH: B1 VH with E52D
VL: DVVMTQSPLSLPVTLGQPASISCRSSQSLVHSNTNTYLHWYQQRPGQSPRLLIYKVSNRFSGVPDRFSGSGSGTDFTLKISRVEAEDVGVYFCSQNTHVPPTFGSGTKLEIKR
notes: pairing with H1 follows from the library being made on humanized GPC3-A and from pair l) of claim 53; also called [GPC3]H1_L1.6

Kd (His-tagged human GPC3 [1]): 28.2 nM
B3: XENP 23064 H1_L1.1 (antibody, human IgG1, kappa, V domains shown)
VH: B1 VH with E52D
VL: B2 VL with N33Q, T34G
notes: VH WT, VL mutation (Kabat) N28Q; also called [GPC3]H1_L1.1; VL N28Q; copies: 2 + 2

Kd (His-tagged human GPC3 [1]): 2.09 nM
B4: XENP 23068 H1_L1.5 (antibody, human IgG1, kappa, V domains shown)
VH: B1 VH with E52D
VL: B2 VL with T34A
notes: VH WT, VL mutation (Kabat) G29A; also called [GPC3]H1_L1.5; VL G29A; copies: 2 + 2

Kd (His-tagged human GPC3 [1]): 3.62 nM
B5: XENP 23063 H1.4_L1 (antibody, human IgG1, kappa, V domains shown)
VH: B1 VH with E52S
VL: B2 VL with T34G
notes: VH mutation (Kabat) D52S, VL WT; also called [GPC3]H1.4_L1; VH D52S; copies: 2 + 2

Kd (His-tagged human GPC3 [1]): 2.35 nM
B6: XENP 23071 H1_L1.8 (antibody, human IgG1, kappa, V domains shown)
VH: B1 VH with E52D
VL: B2 VL with T34G, N35Q
notes: VH WT, VL mutation (Kabat) N30Q; also called [GPC3]H1_L1.8; VL N30Q; copies: 2 + 2

Kd (His-tagged human GPC3 [1]): 3.17 nM
B7: humanized GPC3-A H1_L1 (antibody, V domains shown)
VH: B1 VH with E52D
VL: B1 VL
notes: also called [GPC3]H1_L1

Kd (His-tagged human GPC3 [1]): 12.7 nM
B8: XENP 23066 H1_L1.3 (antibody, human IgG1, kappa, V domains shown)
VH: B1 VH with E52D
VL: B2 VL with N33S, T34G
notes: VH WT, VL mutation (Kabat) N28S; also called [GPC3]H1_L1.3; VL N28S; copies: 2 + 2

Kd (His-tagged human GPC3 [1]): 3.38 nM
B9: XENP 23073 H1_L1.10 (antibody, human IgG1, kappa, V domains shown)
VH: B1 VH with E52D
VL: B2 VL with T34G, N35H
notes: VH WT, VL mutation (Kabat) N30H; also called [GPC3]H1_L1.10; VL N30H; copies: 2 + 2

Kd (His-tagged human GPC3 [1]): 5.81 nM
B10: XENP 23061 H1.2_L1 (antibody, human IgG1, kappa, V domains shown)
VH: B1 VH with E52N
VL: B2 VL with T34G
notes: VH mutation (Kabat) D52N, VL WT; also called [GPC3]H1.2_L1; VH D52N; copies: 2 + 2

Kd (His-tagged human GPC3 [1]): 7.43 nM
B11: XENP 23065 H1_L1.2 (antibody, human IgG1, kappa, V domains shown)
VH: B1 VH with E52D
VL: B2 VL with N33Y, T34G
notes: VH WT, VL mutation (Kabat) N28Y; also called [GPC3]H1_L1.2; VL N28Y; copies: 2 + 2

Kd (His-tagged human GPC3 [1]): 2.22 nM
B12: XENP 23070 H1_L1.7 (antibody, human IgG1, kappa, V domains shown)
VH: B1 VH with E52D
VL: B2 VL with T34K
notes: VH WT, VL mutation (Kabat) G29K; also called [GPC3]H1_L1.7; VL G29K; copies: 2 + 2

Kd (His-tagged human GPC3 [1]): 1.37 nM
B13: XENP 23072 H1_L1.9 (antibody, human IgG1, kappa, V domains shown)
VH: B1 VH with E52D
VL: B2 VL with T34G, N35Y
notes: VH WT, VL mutation (Kabat) N30Y; also called [GPC3]H1_L1.9; VL N30Y; copies: 2 + 2

Kd (His-tagged human GPC3 [1]): 11.7 nM
B14: XENP 23067 H1_L1.4 (antibody, human IgG1, kappa, V domains shown)
VH: B1 VH with E52D
VL: B2 VL with N33H, T34G
notes: VH WT, VL mutation (Kabat) N28H; also called [GPC3]H1_L1.4; VL N28H

Kd (His-tagged human GPC3 [1]): 3.13 nM
B15: XENP 23062 H1.3_L1 (antibody, human IgG1, kappa, V domains shown)
VH: B1 VH with E52Q
VL: B2 VL with T34G
notes: VH mutation (Kabat) D52Q, VL WT; also called [GPC3]H1.3_L1; VH D52Q; copies: 2 + 2

Kd (His-tagged human GPC3 [2]): 70 nM
B16: XENP36941 (GPC3-A H1.1_L1.29 formatted as 1+1 Fab-scFv-Fc with CD3 High-Int #1 scFv) (bispecific antibody)
heavy: QVQLVQSGAEVKKPGASVKVSCKASGYTFTDYEMHWVRQAPGQGLEWMGALEPKTGDTAYSQKFQGRVTMTADKSISTAYMELSRLRSDDTAVYYCTRFYSYTYWGQGTLVTVSSASTKGPSVFPLAPSSKSTSGGTAALGCLVKDYFPEPVTVSWNSGALTSGVHTFPAVLQSSGLYSLSSVVTVPSSSLGTQTYICNVNHKPSDTKVDKKVEPKSCDKTHTCPPCPAPPVAGPSVFLFPPKPKDTLMISRTPEVTCVVVDVKHEDPEVKFNWYVDGVEVHNAKTKPREEEYNSTYRVVSVLTVLHQDWLNGKEYKCKVSNKALPAPIEKTISKAKGQPREPQVYTLPPSREEMTKNQVSLTCDVSGFYPSDIAVEWESDGQPENNYKTTPPVLDSDGSFFLYSKLTVDKSRWEQGDVFSCSVMHEALHNHYTQKSLSLSPGK
scFv-Fc: not shown
light: DVVMTQSPLSLPVTLGQPASISCRSSQSLVHSNGNTYLHWYQQRPGQSPRLLIYQVSNRFSGVPDRFSGSGSGTDFTLKISRVEAEDVGVYFCSQNTHVPPTFGSGTKLEIKRTVAAPSVFIFPPSDEQLKSGTASVVCLLNNFYPREAKVQWKVDNALQSGNSQESVTEQDSKDSTYSLSSTLTLSKADYEKHKVYACEVTHQGLSSPVTKSFNRGEC
notes: 1+1 Fab-scFv-Fc, human IgG1 heterodimeric backbone; treated as one molecule; also called [GPC3]H1.1_L1.29

Kd (His-tagged human GPC3 [2]): 4 nM
B17: GPC3-A H1.1_L1.6 formatted as 1+1 Fab-scFv-Fc with CD3 High-Int #1 scFv (bispecific antibody)
heavy: B16 heavy
scFv-Fc: not shown
light: B16 light with G34T, Q55K
notes: 1+1 Fab-scFv-Fc: VH-CH1-hinge-CH2-CH3 chain and VL-CL light chain form the GPC3 Fab, plus an scFv-Fc chain; also called [GPC3]H1.1_L1.6

Kd (His-tagged human GPC3 [2]): 100 nM
B18: XENP35843 (GPC3-A H1.1_L1.16 formatted as 1+1 Fab-scFv-Fc with CD3 High-Int #1 scFv) (bispecific antibody)
heavy: B16 heavy
scFv-Fc: not shown
light: B16 light with N33S, Q55K, N96S
notes: 1+1 Fab-scFv-Fc, human IgG1 heterodimeric backbone; treated as one molecule; also called [GPC3]H1.1_L1.16

Kd (His-tagged human GPC3 [3]): 4 nM
Kd [4]: 4 nM
B19: XENP21971_GPC3-A_H1_L1 (bispecific antibody)
heavy: B16 heavy with E52D
scFv-Fc: not shown
light: B16 light with Q55K
notes: the sheet prints H1_L1; copies: 1 + 1 + 1

Kd (His-tagged human GPC3 [5]): 400 nM
Kd (His-tagged human GPC3 [6]): 477 nM
Kd [7]: 550 nM
B20: GPC3-A H1.1_L1.73 in the 1+1 Fab-scFv-Fc bsAb format (bispecific antibody)
heavy: B16 heavy
scFv-Fc: not shown
light: B16 light with G34K, Q55Y
notes: also called [GPC3]H1.1_L1.73

Kd (His-tagged human GPC3 [3]): 464 nM
Kd [4]: 485 nM
B21: XENP34368_GPC3-A_H1.1__L1.31 (bispecific antibody)
heavy: B16 heavy
scFv-Fc: not shown
light: B16 light with Q55Y
notes: Another XENP number than XENP36140, which has the same GPC3 Fv; copies: 1 + 1 + 1

Kd (His-tagged human GPC3 [6]): 370 nM
Kd [7]: 370 nM
B22: XENP36934 H1.1_L1.68 (bispecific antibody)
heavy: B16 heavy
scFv-Fc: not shown
light: B16 light with N33Y
notes: also called [GPC3]H1.1_L1.68; VL N28Y K50Q; copies: 1 + 1 + 1

Kd (His-tagged human GPC3 [3]): 70 nM
Kd [4]: 73 nM
B23: XENP34364_GPC3-A_H1.1__L1.29 (bispecific antibody)
heavy: B16 heavy
scFv-Fc: not shown
light: B16 light
notes: Another XENP number than XENP36941, which has the same GPC3 Fv

Kd (His-tagged human GPC3 [5]): 70 nM
Kd (His-tagged human GPC3 [6]): 150 nM
Kd [7]: 150 nM
B24: GPC3-A H1.1_L1.69 in the 1+1 Fab-scFv-Fc bsAb format (bispecific antibody)
heavy: B16 heavy
scFv-Fc: not shown
light: B16 light with G34A
notes: also called [GPC3]H1.1_L1.69

Kd (His-tagged human GPC3 [3]): 93 nM
Kd [4]: 100 nM
B25: XENP34365_GPC3-A_H1.1__L1.16 (bispecific antibody)
heavy: B16 heavy
scFv-Fc: not shown
light: B16 light with N33S, Q55K, N96S
notes: Another XENP number than XENP35843, which has the same GPC3 Fv

Kd (His-tagged human GPC3 [6]): 550 nM
Kd [7]: 600 nM
B26: XENP36933 H1.1_L1.67 (bispecific antibody)
heavy: B16 heavy
scFv-Fc: not shown
light: B16 light with G34K, Y37W, Q55K
notes: also called [GPC3]H1.1_L1.67; VL G29K Y32W; copies: 1 + 1 + 1

Kd (His-tagged human GPC3 [6]): 130 nM
Kd [7]: 130 nM
B27: XENP36936 H1.1_L1.70 (bispecific antibody)
heavy: B16 heavy
scFv-Fc: not shown
light: B16 light with G34K
notes: also called [GPC3]H1.1_L1.70; VL G29K K50Q; copies: 1 + 1 + 1
